Assay results reported in patent WO2019030706A1 (dated 2019).

Columns and labels:
mature human thrombin = mature human thrombin (human, UniProt P00734 314-363; P00734 364-622); assay: estimate from the rate of S2238 hydrolysis by thrombin
prothrombin [1] = target: T1, prothrombin (human, UniProt P00734 44-622); assay: pull-down with IgA binding lectin-agarose, supernatant on SDS-PAGE
prothrombin [2] = target: T1, prothrombin; assay: ForteBio Octet, immobilized IgG

Binder | Kd (mature human thrombin) | binding result (prothrombin [1]) | binding result (prothrombin [2])
wild-type anti-exosite 1 IgA antibody (antibody, V domains shown, also called anti-thrombin IgA; anti-IIa IgA) VH: QVQLIQSGSAVKKPGASVRVSCKVSGYTLTEAAIHWVRQAPGKGLEWMGGLDPQDGETVYAQQFKGRVTMTEDRSTDTAYMEVNNLRSEDTATYYCTTGDFSEFEPFSMDYFHFWGQGTVVTVAS VL: EIVLTQSPATLSLSPGERATLSCRASQNVSSFLAWYQHKPGQAPRLLIYDASSRATDIPIRFSGSGSGTDFTLTISGLEPEDFAVYYCQQRRSWPPLTFGGGTKVEIKR | ~12 nM | no binding | 
synthetic anti-exosite 1 IgG antibody (antibody, V domains shown, also called synthetic IgG; anti-exosite IgG antibody) VH: QVQLIQSGSAVKKPGASVRVSCKVSGYTLTEAAIHWVRQAPGKGLEWMGGLDPQDGETVYAQQFKGRVTMTEDRSTDTAYMEVNNLRSEDTATYYCTTGDFSEFEPFSMDYFHFWGQGTVVTVAS VL: EIVLTQSPATLSLSPGERATLSCRASQNVSSFLAWYQHKPGQAPRLLIYDASSRATDIPIRFSGSGSGTDFTLTISGLEPEDFAVYYCQQRRSWPPLTFGGGTKVEIKR |  |  | no binding (tested: 500nM)
